Assay [1] addresses TRIM32 extended RING domain (UniProt Q13049). The assay is described as follows: SAXS; batch SAXS, Diamond Light Source beamline B21; at least three dilutions of each construct; concentrations as in Table 2.
For assay [2] the target is unchanged. The assay is described as follows: SEC-MALS; SEC-MALLS, Superdex 75 or Superdex 200 10/300 GL, 25°C, 20 mM HEPES pH 7.5, 100 mM NaCl (TRIM32) or 150 mM NaCl (TRIM25), 0.5 mM TCEP, 3 mM NaN3; samples run over a range of concentrations. (SEC sorts molecules by how far they enter the pores of the column.)

Chain of TRIM32 extended RING domain (from UniProt Q13049 1-93) (domain or fragment) (Q13049 1-93): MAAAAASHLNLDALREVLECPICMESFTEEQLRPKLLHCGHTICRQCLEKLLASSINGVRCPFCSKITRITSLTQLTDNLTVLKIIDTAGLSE

The term stoichiometry N denotes the number of molecules, sites or subunits per partner or assembly. As for “TRIM32 extended RING domain (from UniProt Q13049 1-93) (domain or fragment)”, the stoichiometry N in assay [1] and in assay [2] was 2 each time.
